The series can be described thus: purification, SEC and SDS-PAGE. The conditions noted are these: glycan lost; control: wild-type mCD98hcED.

B1: mCD98hcED (murine CD98hc extracellular domain): N385D/T401A (protein)
parent chain: MSQDTEVDMKDVELNELEPEKQPMNAADGAAAGEKNGLVKIKVAEDETEAGVKFTGLSKEELLKVAGSPGWVRTRWALLLLFWLGWLGMLAGAVVIIVRAPRCRELPVQRWWHKGALYRIGDLQAFVGRDAGGIAGLKSHLEYLSTLKVKGLVLGPIHKNQKDEINETDLKQINPTLGSQEDFKDLLQSAKKKSIHIILDLTPNYQGQNAWFLPAQADIVATKMKEALSSWLQDGVDGFQFRDVGKLMNAPLYLAEWQNITKNLSEDRLLIAGTESSDLQQIVNILESTSDLLLTSSYLSNSTFTGERTESLVTRFLNATGSQWCSWSVSQAGLLADFIPDHLLRLYQLLLFTLPGTPVFSYGDELGLQGALPGQPAKAPLMPWNESSIFHIPRPVSLNMTVKGQNEDPGSLLTQFRRLSDLRGKERSLLHGDFHALSSSPDLFSYIRHWDQNERYLVVLNFRDSGRSARLGASNLPAGISLPASAKLLLSTDSARQSREEDTSLKLENLSLNPYEGLLLQFPFVA
As to B1, the stability_or_folding entry is reported as “no change”.

The values above are taken from PMC7380666.
